For this assay, the system named is human osteoblast precursor cells. Briefly: Cell proliferation rate under the influence of growth factors, using bromodeoxyuridine incorporation (BrdU incorporation). The conditions noted are these: for Absorbance mean value: 54 h incubation + 18 h BrdU labelling, OD at 405 nm. Type of assay: cell-based. As to the method:
3,000 osteoblastic cells from fractions t1 to 2 up to the second passage, recovered from osteoporotic patients (OP cells), per well of a 96-well microwell plate were incubated in the presence of 10% FCS and 10% inactivated human control serum in a cell culture medium (α-MEM and HAM-S F12 medium […]) for 48 h, 120 h and 192 h. In parallel, 3,000 osteoblastic cells from non-osteoporotic patients were incubated under the same conditions. The number of intact cells was determined by means of trypan blue staining and counting in a counting chamber. 4. Determination of the cell proliferation rate under the influence of the three growth factors 1, 2 and 3 using bromodeoxyuridine incorporation (BrdU incorporation) Growth factor 1 =TGF-β2
Cells from fraction 1 and/or 2 of each punched-out bone piece up to the 2nd passage were used in the proliferation test.
3 ×10^3 cells from the first and/or second passage per well of a 96-well plate and 200 μl of medium were used.
The cells were cultivated for three days under the conditions previously described and subsequently cultivated further for one day in medium with no serum until subconfluence was reached.
Thereafter, the three growth factors 1, 2 and 3 were added to the cells at four different final concentrations (100, 10, 1, and 0.1 ng/ml medium).
Cells in a medium containing 10% FKS and in a medium containing 5% Ultroser served as controls.
Triplets were set up for all concentrations and controls.
Six wells including cells, to which no bromodeoxyuridine had been added during the proliferation test served as blank controls.
After 54 hours of incubation with the growth factors, the proliferation test (5-Bromo-2′-deoxyuridine Labeling and Detection Kit III by Boehringer Mannheim) was initiated by adding 20 μl of labelling solution diluted 1:90 in 1% BSA medium and subsequent incubation for 18 hours.
The proliferation test was conducted according to the manufacturer's instructions.
Evaluation of the proliferation test was effected by measuring the optical density (OD) at 405 nm in an ELISA reader. After 60 minutes of color development, the absorbance was measured 12 times at intervals of 5 minutes.
(Uptake of a labelled nucleoside into DNA is a usual measure of proliferation.)

Here are results for one molecule from US6713269B2, “Methods for identifying potential therapeutic agents for treatment of osteoporosis using mitogenic indices” (co.don Aktiengesellschaft, priority 1995, dated 2004).

B1: TGF-β2: protein growth factor 1 tested for mitogenic effect on osteoblast cells (protein, UniProt P61812 303-414, looked up)
Transforming growth factor …: ALDAAYCFRNVQDNCCLRPLYIDFKRDLGWKWIHEPKGYNANFCAGACPYLWSSDTQHSRVLSLYNTINPEASASPCCVSQDLEPLTILYYIGKTPKIEQLSNMIVKSCKCS
In the case of B1, the Absorbance mean value is given as 0.150 (0.1 ng/ml medium), 0.170 (1 ng/ml medium), 0.190 (10 ng/ml medium) and 0.190 (100 ng/ml medium). For the setting “osteoblast cells from osteoporosis patients, FIG. 5”, the “mitogenic effect (stimulative capability of cell proliferation, dose-effect curves)” value was “significant dose-dependent mitogenic effect”.
